Sequences and labels used below:
B1: EIG-B 18B2 (antibody, V domains shown)
VH: QVQLKESGPGLVQPSQTLSLTCTVSGFSLTSYHISWVRQPPGKGLEWIAAISSGGDTYYNSLLKSRLSISRDTSKSQVFLKMNRLQTEDTAFYFCNGESYWGQGTLVTVSS
VL: DVVLTQSPATLSVTPGERISLSCRASENIDTYLHWFQQKPNESPRLLIKFASQSISGIPSRFSGSGSGRDFTLSINGVELEDLSIYYCQQGNILPYTFGAGTRLELKR
notes: Rat monoclonal antibody from a hybridoma; Only the variable regions are tied to the clone by name; also called EIG-B 1862
B2: EIG-B 10D9 (antibody, V domains shown)
VH: QVQLKESGPGLVQPSQTLSLTCTVSGFSLTSYHISWVRQPPGKGLEWIAAISSGGDTYYNSLLKSRLSISRDTSKSQVFLKMNRLQTEDTAFYFCNGESYWGQGTLVTVSS
VL: DVVLTQSPATLSVTPGERISLSCRASENIDTYLHWFQQKPNESPRLLIKFASQSISGIPSRFSGSGSGTDFTLSINGVELEDLSIYYCQQGNILPYTFGAGTKLELKR
notes: Rat monoclonal antibody from a hybridoma; Only the variable regions are tied to the clone by name; The constant regions are not tied to the clone
B3: EIG-D 26D7 (antibody, V domains shown)
VH: QVQLQQPGADLVRPGSSVKLSCKASGYSFTSYWMDWVKQRPGQGLEWIGNIYPSDGETHYNQKFKDKATLTVDKSSSTAYMQLSSLTSEDSAVYYCARLYSEYGSWGQGTTLTVSS
VL: DIVMTQSPSSLTVTTGEKVTMSCKSSQSLLNSGNQKNYLTWYQQRPGQPPKLLIYWASTRDSGVPDRFTGSGSGTDFTLTISSVQAADLAVYYCQNDYSYPLTFGAGTKLELKR
notes: Mouse monoclonal antibody from a hybridoma; Only the variable regions are tied to the clone by name; The constant regions are not tied to the clone

In the assay the target is T1, human IGFR-like receptor (UPF0577 protein KIAA1324) (human, UniProt Q6UXG2 42-1013).
T1 construct: Endogenous protein in lysates of human MCF7 cells and human islet cells, seen as a band of ~130 kDa on Western blot; also called IGFR-I; IGF3R
T1 sequence: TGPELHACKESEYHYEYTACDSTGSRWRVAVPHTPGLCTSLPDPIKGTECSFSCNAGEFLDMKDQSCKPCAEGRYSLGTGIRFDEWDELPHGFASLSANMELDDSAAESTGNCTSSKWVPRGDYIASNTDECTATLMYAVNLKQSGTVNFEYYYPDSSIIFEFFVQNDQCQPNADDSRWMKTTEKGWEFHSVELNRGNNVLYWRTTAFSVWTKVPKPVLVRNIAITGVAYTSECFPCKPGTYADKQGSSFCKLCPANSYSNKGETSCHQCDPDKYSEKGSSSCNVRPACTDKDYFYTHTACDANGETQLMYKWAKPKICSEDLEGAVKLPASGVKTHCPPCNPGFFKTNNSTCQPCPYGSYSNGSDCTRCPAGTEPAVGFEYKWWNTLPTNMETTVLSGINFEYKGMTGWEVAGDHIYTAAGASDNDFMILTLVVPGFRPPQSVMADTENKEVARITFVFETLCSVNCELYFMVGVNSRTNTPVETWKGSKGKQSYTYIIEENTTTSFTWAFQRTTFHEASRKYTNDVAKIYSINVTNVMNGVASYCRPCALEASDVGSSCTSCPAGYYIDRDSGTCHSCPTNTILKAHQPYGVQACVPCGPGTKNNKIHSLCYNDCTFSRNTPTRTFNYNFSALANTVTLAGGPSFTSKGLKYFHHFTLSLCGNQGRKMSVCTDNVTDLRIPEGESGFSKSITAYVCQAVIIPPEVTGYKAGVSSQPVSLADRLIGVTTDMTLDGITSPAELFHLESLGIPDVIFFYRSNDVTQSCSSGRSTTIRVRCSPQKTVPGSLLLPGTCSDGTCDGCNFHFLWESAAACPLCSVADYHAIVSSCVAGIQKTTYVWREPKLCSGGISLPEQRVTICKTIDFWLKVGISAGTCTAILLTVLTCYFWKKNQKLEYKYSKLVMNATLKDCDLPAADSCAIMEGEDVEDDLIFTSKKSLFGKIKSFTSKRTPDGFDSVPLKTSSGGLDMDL
The assay can be described thus: Western blot, MCF7 cell lysate (strong). The text has this:
FIG. 29: Detection of IGFR-like receptor in mouse Min6 insulinoma cells and human MCF7 breast cancer cells using antibody against the extracellular domain of IGFR-like receptor. Western blotting experiments show specific recognition of a protein band of ˜130 kDa in Min6 (weak) and MCF7 (strong) cell lysates by an antibody against the extracellular domain SEQ ID NO: 4 (EIG-B 1862: VHC: SEQ ID NO:31, VLC: SEQ ID NO:32; and 10D9: VHC: SEQ ID NO:33, VLC: SEQ ID NO:34) and SEQ ID NO: 6 (EIG-D 26D7: VHC: SEQ ID NO:35, VLC: SEQ ID NO:36). The EIG-B clones are monoclonal antibodies generated against the peptide SEQ ID NO: 4 in rat, whereas the EIG-D clone is a monoclonal antibody generated against the SEQ ID NO: 6 in mouse.
Cells and tissues were lysed in RIPA buffer (50 mM Tris pH7.5, 150 mM NaCl, 1 mM EDTA, 1% IGEPAL, 0.1% SDS, 0.1% Na deoxycholate) containing a cocktail of proteinase inhibitor (1:100, Sigma, P8340) and phosphatases inhibitors (1:100, Sigma Aldrich, #2 P0044 and #3 P5726) and the cell or tissue lysates were cleared by centrifugation at 13000 r.p.m. for 10-30 min. The proteins (10-20 μg) were resolved in 6.5-15% SDS-PAGE according to the protein size to be detected and transferred to a PVDF membrane. Primary antibodies were added to the membrane in 5% milk and incubated at 4° C. overnight. Protein bands were visualized on Hyperfilms™ (GE healthcare, 28906837) or Blaufilme™ CEA-RP (Ernst Christiansen GmbH, EC84A) by chemiluminescent detection (ECL, Millipore, WBKLS0500).
In the case of B1, the binding result is given as “binds”.

As to B2, the binding result is listed as “binds”.

Take B3: the binding result is listed as “binds”.

Source of the values: patent US20230025525A1 (HELMHOLTZ ZENTRUM M NCHEN DEUTSCHES FORSCHUNGSZENTRUM F R …, published 2023).
